Data reported in US20240018188A1.
[ ]: non-standard residue; d: D form. The star is where a group is joined. Dansyl = CN(C)c1cccc2c(S(=O)(=O)*)cccc12; 2Nal = N[C@@H](Cc1ccc2ccccc2c1)C(=O)O; dNle = CCCC[C@@H](N)C(=O)O; βAla = NCCC(=O)O; Sar = CNCC(=O)O

The binders below were run against human RAD51 (human) (UniProt Q06609) (assay: cell-based or functional assay).
human RAD51 (human), sequence (Q06609 2-339 limits assumed): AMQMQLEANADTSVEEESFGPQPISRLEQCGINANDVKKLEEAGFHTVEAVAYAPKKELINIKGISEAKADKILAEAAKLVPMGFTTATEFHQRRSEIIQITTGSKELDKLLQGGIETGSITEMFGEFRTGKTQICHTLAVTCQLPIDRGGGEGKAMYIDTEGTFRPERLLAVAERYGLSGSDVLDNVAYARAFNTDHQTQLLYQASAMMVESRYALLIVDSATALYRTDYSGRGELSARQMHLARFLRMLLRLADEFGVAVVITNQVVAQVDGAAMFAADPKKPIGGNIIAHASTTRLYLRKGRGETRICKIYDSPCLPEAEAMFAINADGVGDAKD

IC50 [µM] | Binder
3500 | Ac-[dL][dNle][dR][dS][dR][dR][dL][dR][dV]G[dL][dR][dK][dR][dR][dR][dR][dR]G[2Nal]-NH2 (SMILES CCCC[C@@H](NC(=O)[C@@H](CC(C)C)NC(C)=O)C(=O)N[C@H](CCCNC(=N)N)C(=O)N[C@H](CO)C(=O)N[C@H](CCCNC(=N)N)C(=O)N[C@H](CCCNC(=N)N)C(=O)N[C@H](CC(C)C)C(=O)N[C@H](CCCNC(=N)N)C(=O)N[C@@H](C(=O)NCC(=O)N[C@H](CC(C)C)C(=O)N[C@H](CCCNC(=N)N)C(=O)N[C@H](CCCCN)C(=O)N[C@H](CCCNC(=N)N)C(=O)N[C@H](CCCNC(=N)N)C(=O)N[C@H](CCCNC(=N)N)C(=O)N[C@H](CCCNC(=N)N)C(=O)N[C@H](CCCNC(=N)N)C(=O)NCC(=O)N[C@@H](Cc1ccc2ccccc2c1)C(N)=O)C(C)C) [Compound 14]
43 | Ac-[dL][dNle][dR][dS][dV][dR][dL][dR][dNle]G[dL][dR][dK][dR][dR][dR][dR][dR]G[2Nal]-NH2 (SMILES CCCC[C@@H](NC(=O)[C@@H](CCCNC(=N)N)NC(=O)[C@@H](CC(C)C)NC(=O)[C@@H](CCCNC(=N)N)NC(=O)[C@H](NC(=O)[C@@H](CO)NC(=O)[C@@H](CCCNC(=N)N)NC(=O)[C@@H](CCCC)NC(=O)[C@@H](CC(C)C)NC(C)=O)C(C)C)C(=O)NCC(=O)N[C@H](CC(C)C)C(=O)N[C@H](CCCNC(=N)N)C(=O)N[C@H](CCCCN)C(=O)N[C@H](CCCNC(=N)N)C(=O)N[C@H](CCCNC(=N)N)C(=O)N[C@H](CCCNC(=N)N)C(=O)N[C@H](CCCNC(=N)N)C(=O)N[C@H](CCCNC(=N)N)C(=O)NCC(=O)N[C@@H](Cc1ccc2ccccc2c1)C(N)=O) [Compound 16]
17 | Ac-[dL][dNle][dR]G[dV][dR][dL][dR][dV]G[dL][dR][dK][dR][dR][dR][dR][dR]G[2Nal]-NH2 (SMILES CCCC[C@@H](NC(=O)[C@@H](CC(C)C)NC(C)=O)C(=O)N[C@H](CCCNC(=N)N)C(=O)NCC(=O)N[C@@H](C(=O)N[C@H](CCCNC(=N)N)C(=O)N[C@H](CC(C)C)C(=O)N[C@H](CCCNC(=N)N)C(=O)N[C@@H](C(=O)NCC(=O)N[C@H](CC(C)C)C(=O)N[C@H](CCCNC(=N)N)C(=O)N[C@H](CCCCN)C(=O)N[C@H](CCCNC(=N)N)C(=O)N[C@H](CCCNC(=N)N)C(=O)N[C@H](CCCNC(=N)N)C(=O)N[C@H](CCCNC(=N)N)C(=O)N[C@H](CCCNC(=N)N)C(=O)NCC(=O)N[C@@H](Cc1ccc2ccccc2c1)C(N)=O)C(C)C)C(C)C) [Compound 12]
20 | Ac-[dL][dNle][dR][dS][dV][dR][dL][dR][dV][βAla][dL][dR][dK][dR][dR][dR][dR][dR]G[2Nal]-NH2 (SMILES CCCC[C@@H](NC(=O)[C@@H](CC(C)C)NC(C)=O)C(=O)N[C@H](CCCNC(=N)N)C(=O)N[C@H](CO)C(=O)N[C@@H](C(=O)N[C@H](CCCNC(=N)N)C(=O)N[C@H](CC(C)C)C(=O)N[C@H](CCCNC(=N)N)C(=O)N[C@@H](C(=O)NCCC(=O)N[C@H](CC(C)C)C(=O)N[C@H](CCCNC(=N)N)C(=O)N[C@H](CCCCN)C(=O)N[C@H](CCCNC(=N)N)C(=O)N[C@H](CCCNC(=N)N)C(=O)N[C@H](CCCNC(=N)N)C(=O)N[C@H](CCCNC(=N)N)C(=O)N[C@H](CCCNC(=N)N)C(=O)NCC(=O)N[C@@H](Cc1ccc2ccccc2c1)C(N)=O)C(C)C)C(C)C) [Compound 17]
8.6 | Dansyl-[Sar][dL][dNle][dR][dS][dV][dR][dL][dR][dV]G[dL][dR][dR][dR][dR][dR][dR][Sar][Sar]-OMe (SMILES CCCC[C@@H](NC(=O)[C@@H](CC(C)C)NC(=O)CN(C)S(=O)(=O)c1cccc2c(N(C)C)cccc12)C(=O)N[C@H](CCCNC(=N)N)C(=O)N[C@H](CO)C(=O)N[C@@H](C(=O)N[C@H](CCCNC(=N)N)C(=O)N[C@H](CC(C)C)C(=O)N[C@H](CCCNC(=N)N)C(=O)N[C@@H](C(=O)NCC(=O)N[C@H](CC(C)C)C(=O)N[C@H](CCCNC(=N)N)C(=O)N[C@H](CCCNC(=N)N)C(=O)N[C@H](CCCNC(=N)N)C(=O)N[C@H](CCCNC(=N)N)C(=O)N[C@H](CCCNC(=N)N)C(=O)N[C@H](CCCNC(=N)N)C(=O)N(C)CC(=O)N(C)CC(=O)OC)C(C)C)C(C)C) [Compound 20]
18 | Ac-[dL][dNle][dR][βAla][dV][dR][dL][dR][dV][βAla][dL][dR][dK][dR][dR][dR][dR][dR]G[2Nal]-NH2 (SMILES CCCC[C@@H](NC(=O)[C@@H](CC(C)C)NC(C)=O)C(=O)N[C@H](CCCNC(=N)N)C(=O)NCCC(=O)N[C@@H](C(=O)N[C@H](CCCNC(=N)N)C(=O)N[C@H](CC(C)C)C(=O)N[C@H](CCCNC(=N)N)C(=O)N[C@@H](C(=O)NCCC(=O)N[C@H](CC(C)C)C(=O)N[C@H](CCCNC(=N)N)C(=O)N[C@H](CCCCN)C(=O)N[C@H](CCCNC(=N)N)C(=O)N[C@H](CCCNC(=N)N)C(=O)N[C@H](CCCNC(=N)N)C(=O)N[C@H](CCCNC(=N)N)C(=O)N[C@H](CCCNC(=N)N)C(=O)NCC(=O)N[C@@H](Cc1ccc2ccccc2c1)C(N)=O)C(C)C)C(C)C) [Compound 22]
6.2 | Dansyl-[Sar][dL][dNle][dR][dS][dV][dR][dL][dR][dV]G[dL][dR][dK][dR][dR][dR][dR][dR]-NH2 (SMILES CCCC[C@@H](NC(=O)[C@@H](CC(C)C)NC(=O)CN(C)S(=O)(=O)c1cccc2c(N(C)C)cccc12)C(=O)N[C@H](CCCNC(=N)N)C(=O)N[C@H](CO)C(=O)N[C@@H](C(=O)N[C@H](CCCNC(=N)N)C(=O)N[C@H](CC(C)C)C(=O)N[C@H](CCCNC(=N)N)C(=O)N[C@@H](C(=O)NCC(=O)N[C@H](CC(C)C)C(=O)N[C@H](CCCNC(=N)N)C(=O)N[C@H](CCCCN)C(=O)N[C@H](CCCNC(=N)N)C(=O)N[C@H](CCCNC(=N)N)C(=O)N[C@H](CCCNC(=N)N)C(=O)N[C@H](CCCNC(=N)N)C(=O)N[C@H](CCCNC(=N)N)C(N)=O)C(C)C)C(C)C) [Compound 19]
25 | Ac-[dL][dNle][dR][dS][dV][dR][dL][dR][dV]G[dL][dR][dR][dR][dR][dR][dR][Sar][Sar]-OMe (SMILES CCCC[C@@H](NC(=O)[C@@H](CC(C)C)NC(C)=O)C(=O)N[C@H](CCCNC(=N)N)C(=O)N[C@H](CO)C(=O)N[C@@H](C(=O)N[C@H](CCCNC(=N)N)C(=O)N[C@H](CC(C)C)C(=O)N[C@H](CCCNC(=N)N)C(=O)N[C@@H](C(=O)NCC(=O)N[C@H](CC(C)C)C(=O)N[C@H](CCCNC(=N)N)C(=O)N[C@H](CCCNC(=N)N)C(=O)N[C@H](CCCNC(=N)N)C(=O)N[C@H](CCCNC(=N)N)C(=O)N[C@H](CCCNC(=N)N)C(=O)N[C@H](CCCNC(=N)N)C(=O)N(C)CC(=O)N(C)CC(=O)OC)C(C)C)C(C)C) [Compound 21]
